One protein from paper PMC3358306 can be followed below.

In general, Km refers to the substrate concentration at which the rate is half of its maximum. One may read the Vmax as the rate approached at saturating substrate.

Substrate in this series: Nc1ncnc2c1ncn2[C@@H]1O[C@H](COP(=O)(O)OP(=O)(O)OP(=O)(O)O)[C@@H](O)[C@H]1O
The series is described as follows: purified protein. The format is biochemical, Archaeoglobus fulgidus. The note with it: Mg2+ ATP binding pocket.

B1: afRio1 (Rio1 kinase) (Archaeoglobus fulgidus DSM 4304) (protein)
chain: MKDLKKIESYLDKLRIKEKDGEERKIYAEVLDGRTLKTLYKLSAKGYITAMGGVISTGKEANVFYADGVFDGKPVAMAVKIYRIETSEFDKMDEYLYGDERFDMRRISPKEKVFIWTEKEFRNLERAKEAGVSVPQPYTYMKNVLLMEFIGEDELPAPTLVELGRELKELDVEGIFNDVVENVKRLYQEAELVHADLSEYNIMYIDKVYFIDMGQAVTLRHPMAESYLERDVRNIIRFFSKYGVKADFEEMLKEVKGE
notes: full-length
As for B1, the Km amounted to 0.4 µM and the maximum rate (Vmax) was found to be 0.000156 µmol/min.
